Experimental data reported in US20210238275A1 (published 2021).

B1: N026 (antibody)
heavy: not shown
light: QSALTQPASVSGSPGQSITISCTGTGSDVGSYNLVSWYQQHPGKAPKLMIYGDSERPSGVSNRFSGSKSGNTASLTISGLQAEDEADYYCSSYAGSGIYVFGTGTKVTVLGQPKAAPSVTLFPPSSEELQANKATLVCLISDFYPGAVTVAWKADSSPVKAGVETTTPSKQSNNKYAASSYLSLTPEQWKSHKSYSCQVTHEGSTVEKTVAPTECS
B2: N023 (antibody)
heavy: not shown
light: B1 light
B3: N024 (antibody)
heavy: not shown
light: B1 light
B4: N027 (antibody)
heavy: not shown
light: B1 light
B5: N022 (antibody)
heavy: not shown
light: B1 light

Target: cell surface, glycophosphatidylinositol (GPI)-linked human FcRn on HEK 293 cells (human, UniProt P55899 24-297, C-terminal engineered GPI linkage)
Assay: IgG competition on 293 cell surface; pH 6.0

Row | EC50 | Binder
1 | 3.24 nM | B1
2 | 2.48 nM | B2
3 | 2.48 nM | B3
4 | 3.25 nM | B4
5 | 2.93 nM | B5
